According to the supplement of paper PMC10126150:
± gives the standard deviation of the averaged measurements.

Tested on: ATP
Test: switch fluorescence ratio, 500 uM ATP over buffer (Cy3 cluster intensity, sum of 5 cycles each) (fold (ratio)); higher = stronger signal-on switching upon ATP binding; sequences stand for … in TCGTCGGCAGCGTCAGATGTGTATAAGAGACAGTTTTTTTTTTTTTTTTTTTTTTTTT…TC
Details: aptamer strand: ATP DNA aptamer (quencher-CACCTGGGGGAGTATTGCGGAGGAAGG + anchor), 100 nM annealed; ATP concentration: 500 uM
Procedure, shortened: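 Exposure to 500 uM ATP lasted 15 min at 22 °C before imaging, and a selection-buffer image was taken beforehand, for Cy3-labelled switching-strand clusters on a modified Illumina MiSeq flow-cell annealed to 100 nM quencher-labelled ATP aptamer. Five buffer/ATP cycles were run with NaOH stripping and re-annealing between them. The fluorescence ratio per cluster is summed target-cycle over summed buffer-cycle Cy3 intensity, averaged per switch-domain sequence. Clusters outside 100-1000 RFU were excluded.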

Sequence | switch fluorescence ratio
CGAAAAATAG | 0.985 ± 0.043
CGAAAACGGT | 0.999 ± 0.048
CGAAAACGTG | 0.976 ± 0.012
CGAAAGATGA | 0.982 ± 0.019
CGAAAGTAGC | 1.01 ± 0.013
CGAAATCATC | 1.063 ± 0.0053
CGAAATCGTG | 0.9964 ± 0.0047
CGAAATGGGT | 1.03 ± 0.025
CGAACAGCGC | 1.01 ± 0.019
CGAACCTTGG | 0.998 ± 0.019
CGAAGACGTA | 1.05 ± 0.06
CGAAGATTTG | 1 ± 0.015
CGAAGCAGGA | 2.4 ± 0.097
CGAAGGATCT | 1.02 ± 0.019
CGAAGGCTGG | 1.0003 ± 0.00038
CGAAGGGATG | 0.982 ± 0.031
CGAAGGGGGG | 1.03 ± 0.087
CGAAGGGTCC | 0.959 ± 0.031
CGAAGGGTGA | 1.06 ± 0.02
CGAAGGGTGG | 0.993 ± 0.028
CGAAGGTTTA | 0.9981 ± 0.0018
CGAATCAAAC | 1.52 ± 0.032
CGAATCTTGT | 1.01 ± 0.016

Sequence | switch fluorescence ratio
CGAATCTTTT | 1.013 ± 0.0025
CGAATGGAAC | 0.989 ± 0.017
CGAATGGTCG | 1.041 ± 0.0095
CGAATTAATT | 0.96152 ± 0.00065
CGAATTACGT | 0.992 ± 0.016
CGACAGGCAT | 1.63 ± 0.063
CGACCACTTT | 1.04 ± 0.025
CGACTAAAAG | 0.999 ± 0.042
CGACTACCTT | 1.21 ± 0.016
CGACTAGGTA | 1 ± 0.062
CGACTGATTA | 0.991 ± 0.013
CGACTTTTAT | 0.9818 ± 0.0046
CGACTTTTGT | 0.967 ± 0.013
CGAGAAGAGA | 1.01 ± 0.013
CGAGAAGGTG | 1.24 ± 0.33
CGAGACAGGG | 1 ± 0.036
CGAGAGGGGA | 1.03 ± 0.02
CGAGATATGT | 1.002 ± 0.0038
CGAGATGGGT | 0.974 ± 0.028
CGAGATGTTA | 0.993 ± 0.015
CGAGCCGAGA | 1.003 ± 0.0095
CGAGCGTAGG | 1.01 ± 0.043
CGAGCTTTAG | 1.024 ± 0.0033

Sequence | switch fluorescence ratio
CGAGGAGGGC | 0.974 ± 0.019
CGAGGCAGCT | 1.16 ± 0.15
CGAGGCCTGT | 1.02 ± 0.022
CGAGGGCAGG | 1.08 ± 0.06
CGAGGGCATG | 1.07 ± 0.045
CGAGGGGAAC | 2.81 ± 2.5
CGAGGGGATA | 1.04 ± 0.051
CGAGGGGCTG | 1.03 ± 0.013
CGAGGGTAAG | 1 ± 0.0022
CGAGTAAAGA | 1.03 ± 0.028
CGAGTAACGC | 1.03 ± 0.015
CGAGTACGGT | 0.979 ± 0.028
CGAGTAGGGG | 1.01 ± 0.025
CGAGTATGAA | 0.989 ± 0.06
CGAGTCAGTT | 0.992 ± 0.029
CGAGTCCAAG | 1.01 ± 0.026
CGAGTTAAGC | 0.965 ± 0.02
CGAGTTGGCT | 1 ± 0.032
CGAGTTGTTG | 1.014 ± 0.0072
CGAGTTGTTT | 1 ± 0.03
CGATAAGAAG | 1.01 ± 0.017
CGATAAGCGG | 1.02 ± 0.035
CGATACCGTG | 1.007 ± 0.0044

Sequence | switch fluorescence ratio
CGATACGATT | 1.06 ± 0.076
CGATAGTATA | 1.007 ± 0.0082
CGATATGTTC | 1.01 ± 0.018
CGATCCGGGC | 1.05 ± 0.043
CGATCCTTTT | 1.05 ± 0.029
CGATCGGGAT | 1.12 ± 0.13
CGATCTTACG | 0.9935 ± 0.0069
CGATCTTGGA | 0.94 ± 0.065
CGATGAATTC | 1.07 ± 0.048
CGATGAATTG | 0.981 ± 0.023
CGATGAGGGG | 0.967 ± 0.03
CGATGAGTAA | 1 ± 0.029
CGATGCAGTT | 1.05 ± 0.041
CGATGCGAAG | 1.02 ± 0.035
CGATGGATGG | 1.01 ± 0.037
CGATGGCGGG | 1.02 ± 0.071
CGATGGGGAC | 1.14 ± 0.019
CGATGGGGTA | 1.01 ± 0.044
CGATGGTGTT | 1.01 ± 0.035
CGATGTAGGC | 1.05 ± 0.088
CGATGTCGTA | 1.03 ± 0.034
CGATGTCTCT | 0.973 ± 0.047
CGATGTTTTT | 0.957 ± 0.029

Sequence | switch fluorescence ratio
CGATTATTTC | 0.983 ± 0.0096
CGATTCGCAG | 1.25 ± 0.096
CGATTCTTGG | 0.99932 ± 5.1e-05
CGATTGCATG | 1.05 ± 0.017
CGATTGGGGG | 1.01 ± 0.018
CGATTTATGT | 0.9925 ± 0.0057
CGATTTCTCT | 0.973 ± 0.04
CGATTTTCAT | 0.988 ± 0.013
CGATTTTGGC | 0.962 ± 0.049
CGATTTTGGT | 0.9633 ± 0.0038
CGATTTTTTG | 1 ± 0.019
CGCAAATCAA | 1.38 ± 0.073
CGCAATTGAG | 3.38 ± 0.17
CGCAATTGTT | 2.49 ± 0.55
CGCACGGGTC | 1.11 ± 0.038
CGCAGAGCAA | 2.538 ± 0.0049
CGCAGGCACG | 1.07 ± 0.052
CGCAGTCTGT | 1.12 ± 0.012
CGCATCAAGT | 1.01 ± 0.031
CGCATCCTTG | 1.03 ± 0.027
CGCCCCAGTG | 3.02 ± 1.8
CGCCCCTGGG | 1.13 ± 0.18
CGCCCTTGGC | 1.07 ± 0.036

Sequence | switch fluorescence ratio
CGCCGAGATT | 1.08 ± 0.058
CGCCGATATA | 1.12 ± 0.063
CGCCGCTGGG | 1.993 ± 0.0075
CGCCGGCGGG | 0.978 ± 0.034
CGCCGGGGGC | 1.03 ± 0.014
CGCCGGGTGC | 2.75 ± 0.43
CGCCGTGTCG | 0.927 ± 0.049
CGCCTAAGGG | 0.993 ± 0.037
CGCCTCAGGG | 1.14 ± 0.018
CGCCTGGCCG | 0.9439 ± 0.0079
CGCCTGGGAT | 1.03 ± 0.0027
CGCGATGGCG | 0.98 ± 0.017
CGCGATTATT | 1.09 ± 0.04
CGCGCAGAT | 1.02 ± 0.025
CGCGCTTTCA | 1.02 ± 0.027
CGCGGAGGGG | 1.01 ± 0.049
CGCGGAGTAG | 0.9869 ± 0.0043
CGCGGGCACT | 1.04 ± 0.04
CGCGGGGGGC | 1.05 ± 0.084
CGCGGGGTAG | 1.038 ± 0.0072
CGCGGGGTGT | 1.05 ± 0.03
CGCGGTAATT | 1.05 ± 0.063
CGCGGTATCT | 1.02 ± 0.033

Sequence | switch fluorescence ratio
CGCGGTATTA | 1.02 ± 0.013
CGCGGTTAAA | 1.18 ± 0.19
CGCGTGAAGA | 1.12 ± 0.11
CGCGTTCGGA | 1.04 ± 0.015
CGCTAAAGGG | 1.042 ± 0.0042
CGCTAATCAA | 1.09 ± 0.042
CGCTACGATG | 1.082 ± 0.0078
CGCTAGGTTG | 1.01 ± 0.026
CGCTATGGGA | 1.02 ± 0.026
CGCTATTATA | 1.09 ± 0.052
CGCTATTATT | 1.05 ± 0.04
CGCTCCGCCT | 2.36 ± 0.11
CGCTCCGGGC | 1.23 ± 0.058
CGCTCTAAAA | 1.01 ± 0.011
CGCTGAGATC | 1.016 ± 0.002
CGCTGGGTAC | 2.24 ± 0.28
CGCTGTCAGC | 1.002 ± 0.0037
CGCTTAACCG | 1.04 ± 0.043
CGCTTATACG | 1.78 ± 0.58
